Test results as given in article PMC10512945.

Molecular target: N-terminally GST-tagged human GBF1 (containing the Y828A mutation that confers BFA resistance) (human)
Experiment: negative staining electron microscopy; purified GST-GBF1 on glow-discharged carbon grids, washed with 20 mM Bis-Tris pH 7.0, 50 mM NaCl, 1 mM DTT, stained with 1% uranyl formate; 2D class averages from 81,522 particles, compared with AlphaFold-predicted monomers

“N-terminally GST-tagged human GBF1 (containing the Y828A mutation that confers BFA resistance) (natural protein)” was tested, and the stoichiometry N was 2.
